Values of other authors in article PMC9871243.

Tests used:
[1] = tested on: Influenza A virus hemagglutinin (cited work) (Influenza A virus); conditions: modifications in the cited assays not stated, PBS, pH and binding temperature not stated
[2] = tested on: Influenza A virus virion (cited work), hemagglutinin (Influenza A virus); conditions: modifications in the cited assays not stated, PBS, pH and binding temperature not stated

Sequence: TTGGGTTATTTTGGGAGGGCGGGGGTT [RHA0385 (as in cited works)]
- Kd [1]: 0.6 nM
- Kd [2]: 0.0011 nM
